Where “and” joins values, the source holds several entries; their conditions need not be identical. Equal entries are not always repeated.

For this series the following is noted: Capra hircus, 25 °C, GdnHCl, CD, Tris 20 mM, Na+ 80 mM, whole UniProt chain shown.

B1: Alpha-lactalbumin wild type, P00712 (protein)
chain: MMSFVSLLLVGILFHATQAEQLTKCEVFQKLKDLKDYGGVSLPEWVCTAFHTSGYDTQAIVQNNDSTEYGLFQINNKIWCKDDQNPHSRNICNISCDKFLDDDLTDDIVCAKKILDKVGINYWLAHKALCSEKLDQWLCEKL
Regarding B1, the denaturant m value reads like this: (pH 4.5, transition: 3) 1.34 kcal/mol/M and 1.19 kcal/mol/M; (pH 4.5) 2.53 kcal/mol/M; (pH 5.5) 2.75 kcal/mol/M; (pH 7.5) 3 kcal/mol/M. Moreover, the unfolding free energy runs as follows: (pH 4.5, transition: 3) 3.39 kcal/mol and 3.38 kcal/mol; (pH 4.5) 6.79 kcal/mol; (pH 5.5) 8.8 kcal/mol; (pH 7.5) 10.2 kcal/mol.

The record behind these values is FireProtDB (doi:10.1002/prot.20212).
